# Publication PMC3772097
# System: ORC (origin recognition complex) (Saccharomyces cerevisiae)
# Assay: EMSA
# Details: 25 mM Tris-HCl pH 8.0, 5 mM MgCl2, 150 mM KCl, 40 ug BSA, 5% glycerol, 5 mM DTT, 1 ug calf-thymus DNA, 2 mM ATP; 5 pM probe, ORC 0.3-30 nM; 25 C 20 min; 3.5% …
row,Substance,Kd
1,ARS720 probe,33.9 nM
2,ARS1513 probe,56.3 nM
3,ARS920 probe,8.65 nM
4,ARS824 probe,38.1 nM
5,ARS1005 probe,> 419 nM
6,ARS1329 probe,76.8 nM
7,ARS1320 probe,20.9 nM
8,ARS716 probe,39.2 nM
9,ARS1114 probe,33.3 nM
10,ARS514 probe,4.12 nM
11,ARS214 probe,41.3 nM
12,ARS219.5 probe,> 419 nM
13,ARS822 probe,260 nM
14,ARS428 probe,91.6 nM
15,ARS728 probe,8.38 nM
16,ARS1004 probe,92.3 nM
17,ARS818 probe,94 nM
18,ARS1529.5 probe,192 nM
19,ARS1215 probe,55.8 nM
20,ARS1631 probe,26.8 nM
21,ARS1015 probe,63.1 nM
22,ARS1521 probe,90.1 nM
23,ARS604 probe,61 nM

row,Substance,Kd
1,ARS1325 probe,63 nM
2,ARS423 probe,6.76 nM
3,ARS1307 probe,83.7 nM
4,ARS1601 probe,32.8 nM
5,ARS317 (HMR-E) probe,7.22 nM
6,ARS201 probe,20.1 nM
7,ARS1011 probe,11.1 nM
8,ARS1528 probe,> 419 nM
9,ARS1021 probe,17.9 nM
10,ARS422 probe,9.85 nM
11,ARS516 probe,27.8 nM
12,ARS105 probe,> 419 nM
13,ARS1420 probe,17.8 nM
14,ARS512 probe,55.1 nM
15,ARS1323 probe,58.6 nM
16,ARS1123 probe,12.3 nM
17,ARS1405 probe,97.2 nM
18,ARS911 probe,87.3 nM
19,ARS416 (ARS1) probe,35.1 nM
20,ARS1413 probe,419 nM
21,ARS305 probe,33.1 nM
22,ARS1625 probe,8.67 nM
23,ARS1332 probe,35.3 nM
